Experimental data reported in patent US9169496B2, “Method for the enzymatic production of butadiene” (Scientist of Fortune, S.A., priority 2011, dated 2015).

Tests used:
[1] = substrate: C/C=C/COP(=O)(O)O; assay: Kinetic parameters of the crotyl monophosphate phosphorylation reaction (pyruvate kinase/lactate dehydrogenase coupled spectrophotometric assay); type: biochemical, Thermoplasma acidophilum; details: other: trans crotyl monophosphate as a substrate; assay of Example 2; pH 7.5; 37.0 °C
Protocol: (§1) The release of ADP that is associated with crotyl alcohol phosphorylation was quantified using the pyruvate kinase/lactate dehydrogenase coupled assay (FIG. 5). The purified 4-methyl-5-(2-hydroxyethyl)thiazole kinases from Escherichia coli (SEQ ID NO:2), Bacillus subtilis (SEQ ID NO:1), Rhizobium leguminosarum (SEQ ID NO:3) were evaluated for their ability to phosphorylate crotyl alcohol releasing ADP. The studied enzymatic reaction was carried out under the following conditions at 37° C.: • 50 mM Tris-HCl pH 7.5 • 10 mM MgCl2 • 100 mM KCl • 5 mM ATP • 0.4 mM NADH • 1 mM Phosphoenolpyruvate • 3 U/ml Lactate dehydrogenase • 1.5 U/ml Pyruvate kinase • 50 mM crotyl alcohol, mixture cis and trans • The pH was adjusted to 7.5
(§2) Each assay was started by addition of a particular enzyme at a concentration 0.05 mg/ml and the disappearance of NADH was monitored by following the absorbance at 340 nm.
(§3) Sequences of isopentenyl monophosphate kinases inferred from the genomes of several members of the Archaea, in particular Methanothermobacter (SEQ ID NO:5), Methanocaldococcus (SEQ ID NO:6) and Thermoplasma (SEQ ID NO:4) genus, are generated by oligonucleotide concatenation to fit the codon usage of E. coli. […] The genes thus synthesized are cloned in a pET25b expression vector and the proteins are produced according to the protocol described in Example 1. The enzymes are then assayed using the method described in Example 2 with crotyl monophosphate concentrations varying from 0 to 50 mM. The release of ADP that is associated with crotyl monophosphate phosphorylation is quantified using the pyruvate kinase/lactate dehydrogenase coupled assay. Each assay is started by addition of particular enzyme (at a final concentration from 0.05 mg/ml to 1 mg/ml) and the disappearance of NADH is monitored by following the absorbance at 340 nm.
(§4) Cis crotyl monophosphate and trans crotyl monophosphate were synthesized upon request by a company specialized in custom synthesis (Syntheval, France). Kinetic parameters for the phosphorylation of these substrates were determined using the spectrophotometric assay described in Example 2. Kinetic parameters obtained with purified isopentenyl monophosphate kinases from different members of the Archaea kingdom are presented in Table 3 (cis crotyl monophosphate as a substrate) and Table 4 (trans crotyl monophosphate as a substrate).

[2] = substrate: C/C=C\COP(=O)(O)O; assay: as above; type: biochemical, Thermoplasma acidophilum; details: other: cis crotyl monophosphate as a substrate; assay of Example 2; pH 7.5; 37.0 °C
Protocol: as §1, §2, §3, §4

[3] = substrate: C/C=C/COP(=O)(O)O; assay: as above; type: biochemical, Methanothermobacter thermautotrophicus; details: other: trans crotyl monophosphate as a substrate; assay of Example 2; pH 7.5; 37.0 °C
Protocol: as §1, §2, §3, §4

[4] = substrate: C/C=C\COP(=O)(O)O; assay: as above; type: biochemical, Methanothermobacter thermautotrophicus; details: other: cis crotyl monophosphate as a substrate; assay of Example 2; pH 7.5; 37.0 °C
Protocol: as §1, §2, §3, §4

[5] = substrate: NC(=O)C1=CN([C@@H]2O[C@H](COP(=O)(O)OP(=O)(O)OC[C@H]3O[C@@H](n4cnc5c(N)ncnc54)[C@H](OP(=O)(O)O)[C@@H]3O)[C@@H](O)[C@H]2O)C=CC1; assay: purified protein, by the assay type; details: other: crotonyl-CoA fixed at 5 mM, NADPH 0 to 0.8 mM, pH 7.5, 37° C.
[6] = substrate: C/C=C/C(=O)SCCNC(=O)CCNC(=O)[C@H](O)C(C)(C)COP(=O)(O)OP(=O)(O)OC[C@H]1O[C@@H](n2cnc3c(N)ncnc32)[C@H](O)[C@@H]1OP(=O)(O)O; assay: Kinetic parameters towards crotonyl-CoA, overall reaction (crotyl alcohol quantification by HPLC); type: biochemical, Hahella chejuensis; details: other: NADPH fixed at 80 mM, crotonyl-CoA 0 to 32 mM, pH 7.5, 37° C.
Protocol: The reactions were initiated by addition of 150 μg of purified dehydrogenase/reductase to 150 μl of reaction mixture. Assays were incubated at 37° C. for 0.5-6 h. The reactions were stopped by heating at 65° C. for 5 minutes, reaction mixtures were centrifuged and 120 μl of the clarified supernatant were transferred into a clean vial. The reaction products were then extracted with an equal volume of ethyl acetate. 100 μl of the upper ethyl acetate phase was transferred into a clean vial for HPLC analysis. Commercial crotonaldehyde and crotyl alcohol were used as reference. HPLC-UV analysis was performed using a 1260 Inifinity LC System (Agilent). 10 μl of samples were separated on Zorbax SB-Aq column (250×4.6 mm, 3.5 μm particle size) with a mobile phase flow rate of 1.5 ml/min. The mobile phase consisted of 95:5 (v/v) H2O/Acetonitrile containing 8.4 mM sulfuric acid.
Kinetic parameters for the overall reaction were determined by crotyl alcohol quantification using HPLC procedure described in Example 17.

[7] = substrate: C/C=C/COP(=O)(O)O; assay: Kinetic parameters of enzyme catalyzed production of 1,3-butadiene from trans crotyl monophosphate (GC/FID); type: biochemical, Eucalyptus globulus; details: other: 0-25 mM trans crotyl monophosphate, pH 7.5, 37° C., 20 mM MgCl2, 20 mM KCl, 0.5-4 h
Protocol: (§5) One ml of the gaseous phase was then collected and directly injected into a Varian GC-430 gas chromatograph equipped with a flame ionization detector (FID). Nitrogen was used as carrier gas with a flow rate of 1.5 ml/min. Volatile compounds were chromatographically separated on RT-Alumina Bond/Na2SO4 column (Restek) using an isothermal mode at 130° C. The enzymatic reaction product was identified by direct comparison with 1,3-butadiene standard (Sigma).
The kinetic parameters of enzyme catalyzed production of 1,3-butadiene from trans crotyl monophosphate were measured under the following conditions: • 50 mM Tris-HCl pH 7.5 • 20 mM MgCl2 • 20 mM KCl • 2 mM DTT • 0-25 mM trans crotyl monophosphate
(§6) The reaction was initiated by addition of 0.25 mg of purified monoterpene synthase from Eucalyptus globulus to 0.5 ml of reaction mixture. An enzyme-free control reaction was carried out in parallel. Assays were incubated at 37° C. for 0.5-4 h in a sealed vial of 1.5 ml (Interchim) with shaking.
(§7) 1,3-butadiene production was analyzed using the GC/FID procedure described in Example 12.

[8] = substrate: C/C=C/COP(=O)(O)OP(=O)(O)O; assay: Kinetic parameters of enzyme catalyzed production of 1,3-butadiene from trans crotyl diphosphate (GC/FID); type: biochemical, Eucalyptus globulus; details: other: 0-25 mM trans crotyl diphosphate, pH 7.5, 37° C., 20 mM MgCl2, 20 mM KCl, 0.5-4 h
Protocol: as §5
The kinetic parameters of enzyme catalyzed production of 1,3-butadiene from trans crotyl […] were measured under the following conditions: • 50 mM Tris-HCl pH 7.5 • 20 mM MgCl2 • 20 mM KCl • 2 mM DTT • 0-25 mM trans crotyl diphosphate
as §6, §7

[9] = substrate: C/C=C/COP(=O)(O)O; assay: Kinetic parameters of the crotyl monophosphate phosphorylation reaction (pyruvate kinase/lactate dehydrogenase coupled spectrophotometric assay); type: biochemical, Methanocaldococcus jannaschii; details: other: trans crotyl monophosphate as a substrate; assay of Example 2; pH 7.5; 37.0 °C
Protocol: as §1, §2, §3, §4

[10] = substrate: C/C=C\COP(=O)(O)O; assay: as above; type: biochemical, Methanocaldococcus jannaschii; details: other: cis crotyl monophosphate as a substrate; assay of Example 2; pH 7.5; 37.0 °C
Protocol: as §1, §2, §3, §4

[11] = substrate: C/C=C\CO; assay: Kinetic parameters of crotyl alcohol phosphorylation (pyruvate kinase/lactate dehydrogenase coupled spectrophotometric assay); type: biochemical, Escherichia coli; details: other: crotyl alcohol phosphorylation, pH 7.5, 37° C., 5 mM ATP
Protocol: as §1, §2
(§8) Kinetic parameters of crotyl alcohol phosphorylation were determined using the spectrophotometric assay described in Example 2.

[12] = substrate: C/C=C/CO; assay: as above; type: biochemical, Escherichia coli; details: other: crotyl alcohol phosphorylation, pH 7.5, 37° C., 5 mM ATP
Protocol: as §1, §2, §8

B1: isopentenyl monophosphate kinase from Thermoplasma acidophilum, SEQ ID NO:4 (Thermoplasma acidophilum DSM 1728) (protein)
chain: MMILKIGGSVITDKSAYRTARTYAIRSIVKVLSGIEDLVCVVHGGGSFGHIKAMEFGLPGPKNPRSSIGYSIVHRDMENLDLMVIDAMIEMGMRPISVPISALRYDGRFDYTPLIRYIDAGFVPVSYGDVYIKDEHSYGIYSGDDIMADMAELLKPDVAVFLTDVDGIYSKDPKRNPDAVLLRDIDTNITFDRVQNDVTGGIGKKFESMVKMKSSVKNGVYLINGNHPERIGDIGKESFIGTVIR
[1]
  Km: 1000 µM
  kcat: 2.2 s⁻¹
[2]
  Km: 610 µM
  kcat: 1.8 s⁻¹

B2: isopentenyl monophosphate kinase from Methanothermobacter thermautotrophicus, SEQ ID NO:5 (Methanothermobacter thermautotrophicus str. Delta H) (protein)
chain: MIILKLGGSVITRKDSEEPAIDRDNLERIASEIGNASPSSLMIVHGAGSFGHPFAGEYRIGSEIENEEDLRRRRFGFALTQNWVKKLNSHVCDALLAEGIPAVSMQPSAFIRAHAGRISHADISLIRSYLEEGMVPVVYGDVVLDSDRRLKFSVISGDQLINHFSLRLMPERVILGTDVDGVYTRNPKKHPDARLLDVIGSLDDLESLDGTLNTDVTGGMVGKIRELLLLAEKGVESEIINAAVPGNIERALLGEEVRGTRITGKH
[3]
  Km: 450 µM
  kcat: 8.7 s⁻¹
[4]
  Km: 940 µM
  kcat: 5.7 s⁻¹

B3: short chain alcohol dehydrogenase-like protein from Hahella chejuensis, SEQ ID NO: 17 (Hahella chejuensis KCTC 2396) (protein)
chain: MNYFVTGGTGFIGRFLVPKLLKRGGTVYLLVREASLPKLDELRERWNASDEQVVGVVGDLAQPMLGVSEKDAAMLRGKVGHFFHLAAIYDMQASAESQEQANIEGTRNAVKLADSLKAACFHHVSSIAAAGLYRGIFREDMFEEAEKLDNPYLRTKHESEKVVREECQTPWRVYRPGMVVGHSKTGEIDKIDGPYYFFKLIQKLRSALPQWMPTVGLEGGRINIVPVDFVVDAMDHIAHAEGEDGKCFHLTDPDPYKVGEILNIFAEAGHAPKMAMRIDARMFGFIPPMIRQGIARLPPVQRMKNAVLNDLGIPDEVMSFINYPTRFDNRETERLLKGTAIAVPRLQDYSPAIWDYWERHLDPDLHKDRTLRGAVEGRVCVITGATSGIGLSAARKLAEAGAKVVIAARTLEKLQEVKKELEELGGEVYEYSVDLSDLEDCDRFVANVLKDLGHVDVLVNNAGRSIRRSIQHAFDRFHDFERTMQLNYFGSLRLIMGFAPSMLERRRGHIVNISSIGVLTNAPRFSAYVASKAALDAFSRCAAAEFSDKNVTFTTINMPLVRTPMISPTKIYDSVPTLTPEEAADLVAEAIIHRPKRIATRLGVFAQVLHSMAPKFSEIIMNTGFKMFPDSSAATGGKDGEKPKVSTEQVAFAAIMRGIHW
[5]
  Km: 1000 µM
  kcat: 6.0 s⁻¹
[6]
  Km: 5000 µM
  kcat: 0.05 s⁻¹

B4: monoterpene synthase from Eucalyptus globulus, SEQ ID NO: 8 (Eucalyptus globulus) (protein)
chain: MALRLLFTPHLPVLSSRRANGRVRCSASTQISDPQEGRRSANYQPSVWTYNYLQSIVAGEGRQSRREVEQQKEKVQILEEEVRGALNDEKAETFTIFATVDDIQRLGLGDHFEEDISNALRRCVSKGAVFMSLQKSLHGTALGFRLLRQHGYEVSQDVFKIFLDESGSFVKTLGGDVQGVLSLYEASHLAFEEEDILHKARSFAIKHLENLNSDVDKDLQDQVKHELELPLHRRMPLLEARRSIEAYSRREYTNPQILELALTDFNVSQSTLQRDLQEMLGWWNNTGLAKRLSFARDRLIECFFWAVGIAHEPSLSICRKAVTKAFALILVLDDVYDVFGTLEELELFTEAVRRWDLNAVEDLPVYMKLCYLALYNSVNEMAYETLKEKGENVIPYLAKAWYDLCKAFLQEAKWSNSRIIPGVEEYLNNGWVSSSGSVMLIHAYFLASPSIRKEELESLEHYHDLLRLPSLIFRLTNDIASSSAELERGETTNSIRCFMQEKGISELEARECVKEEIDTAWKKMNKYMVDRSTFNQSFVRMTYNLARMAHCVYQDGDAIGSPDDLSWNRVHSLIIKPISPAA
[7]
  Km: 6000 µM
[8]
  Km: 7000 µM
  kcat: 3e-05 s⁻¹

B5: isopentenyl monophosphate kinase from Methanocaldococcus jannaschii, SEQ ID NO:6 (Methanocaldococcus jannaschii DSM 2661) (protein)
chain: MLTILKLGGSILSDKNVPYSIKWDNLERIAMEIKNALDYYKNQNKEIKLILVHGGGAFGHPVAKKYLKIEDGKKIFINMEKGFWEIQRAMRRFNNIIIDTLQSYDIPAVSIQPSSFVVFGDKLIFDTSAIKEMLKRNLVPVIHGDIVIDDKNGYRIISGDDIVPYLANELKADLILYATDVDGVLIDNKPIKRIDKNNIYKILNYLSGSNSIDVTGGMKYKIDMIRKNKCRGFVFNGNKANNIYKALLGEVEGTEIDFSE
[9]
  Km: 490 µM
  kcat: 3 s⁻¹
[10]
  Km: 200 µM
  kcat: 3.4 s⁻¹

B6: 4-methyl-5-(2-hydroxyethyl)thiazole kinase (hydroxyethylthiazole kinase, EC 2.7.1.50) from Escherichia coli, SEQ ID NO:2 (Escherichia coli K-12) (protein)
chain: MQVDLLGSAQSAHALHLFHQHSPLVHCMTNDVVQTFTANTLLALGASPAMVIETEEASQFAAIASALLINVGTLTQPRAQAMRAAVEQAKSSQTPWTLDPVAVGALDYRRHFCHELLSFKPAAIRGNASEIMALAGIANGGRGVDTTDAAANAIPAAQTLARETGAIVVVTGEMDYVTDGHRIIGIHGGDPLMTKVVGTGCALSAVVAACCALPGDTLENVASACHWMKQAGERAVARSEGPGSFVPHFLDALWQLTQEVQA
[11]
  Km: 13600 µM
  kcat: 0.19 s⁻¹
[12]
  Km: 30000 µM
  kcat: 0.11 s⁻¹
